In article PMC4778124, “A continuous sirtuin activity assay without any coupling to enzymatic or chemical reactions” (Scientific Reports, 2016):
Where “and” joins values, the source holds several entries; their conditions need not be identical. Equal values may be shown once.

Tests used:
Assay type in all cases: biochemical, human
[1] = system: T1, CCCCCCCCCCCCCC(=O)NCCCC[C@H](NC(=O)[C@H](CCCCN)NC(=O)[C@@H]1CCCN1C(=O)[C@H](CC(C)C)NC(=O)[C@H](C)NC(=O)[C@H](CCC(=O)O)NC(C)=O)C(=O)N[C@H](C(=O)NCC(=O)NCC(N)=O)[C@@H](C)O; experiment: HPLC based activity assay; conditions: other: HPLC; Sirt6 0.5 µM; pH 7.8; 37.0 °C
T1 construct: His-tag; made in house; host or cells: E. coli BL21 DE3
Procedure: (§1) For the determination of kinetic constants for all sirtuin mediated reactions solutions containing 20 mM TRIS/HCl pH 7.8, 150 mM NaCl, 5 mM MgCl2 (assay-buffer), 500 μM NAD^+ and varying substrate concentrations (0.5–100 μM) were used. Deacylation was started by adding human sirtuin to reach a final concentration of 0.01–0.5 μM. Enzyme-catalyzed reaction was stopped using TFA (1% final concentration) after 1 min to 180 min of incubation at 37 °C depending on substrate reactivity. The cleavage rate of the different TNFα peptide derivatives was analyzed using analytical reversed phase HPLC. 40 to 80 μl of compounds or reaction solutions were injected and separated using a linear gradient from 5% to 95% solvent B within 6min. The product and substrate peaks were quantified using absorbance at 220 nm or 365 nm (absorption of 3-Nitrotyrosyl moiety). The peak areas were integrated and converted to initial velocity rates calculated from the ratio of product area to total peak area. Linear regression of conversions plotted against time yielded reaction rates in μM/min (relative conversion below 20% of substrate). Non-linear regression according to Michaelis-Menten of the reaction rates at different substrate concentrations yielded KM- and kcat-values using the program SigmaPlot 8 (Systat Software, San Jose, USA). All measurements were done in duplicates. […]

[2] = system: T2, CC(=O)N[C@@H](CCC(=O)O)C(=O)N[C@@H](C)C(=O)N[C@@H](CC(C)C)C(=O)N1CCC[C@H]1C(=O)N[C@@H](CCCCN)C(=O)N[C@@H](CCCCNC(=O)CCCCCCCCCCNC(=O)c1ccccc1N)C(=O)N[C@@H](Cc1ccc(O)c([N+](=O)[O-])c1)C(=O)NCC(=O)NCC(N)=O; experiment: HPLC based activity assay; conditions: other: HPLC; Sirt6 0.5 µM; pH 7.8; 37.0 °C
T2 construct: His-tag; made in house; host or cells: E. coli BL21 DE3
Procedure: as §1

[3] = system: T3, CCCCCCCCCCCCCC(=O)NCCCC[C@H](NC(=O)[C@H](CCCCN)NC(=O)[C@@H]1CCCN1C(=O)[C@H](CC(C)C)NC(=O)[C@H](C)NC(=O)[C@H](CCC(=O)O)NC(C)=O)C(=O)N[C@@H](Cc1ccc(O)c([N+](=O)[O-])c1)C(=O)NCC(=O)NCC(N)=O; experiment: HPLC based activity assay; conditions: other: HPLC; Sirt6 0.5 µM; pH 7.8; 37.0 °C
T3 construct: His-tag; made in house; host or cells: E. coli BL21 DE3
Procedure: as §1

[4] = system: T2, CC(=O)N[C@@H](CCC(=O)O)C(=O)N[C@@H](C)C(=O)N[C@@H](CC(C)C)C(=O)N1CCC[C@H]1C(=O)N[C@@H](CCCCN)C(=O)N[C@@H](CCCCNC(=O)CCCCCCCCCCNC(=O)c1ccccc1N)C(=O)N[C@@H](Cc1ccc(O)c([N+](=O)[O-])c1)C(=O)NCC(=O)NCC(N)=O; experiment: Continuous fluorescence assay, substrate kinetics; conditions: other: Sirt6 500 nM; fluorescence spectrophotometer (footnote a); 37.0 °C
Procedure: The fluorescence measurements were performed on a Hitachi F-4500 fluorescence spectrophotometer (Tokyo, Japan) at λEx = 310 nm and λEm = 405 nm (slitEx = 5 nm, slitEm = 2.5 nm, PMT = 700 V for 3, 4 and 5 as well as slitEx = 10 nm, slitEm = 10 nm, PMT = 950 V for 4a). Each reaction mixture contained assay-buffer, 0.5 mM NAD^+ and various peptide concentrations (0.1–100 μM) and was preincubated for 5 minutes at 37 °C. The reaction was started by adding human sirtuin (0.1–0.5 μM) and observed for 5–10 minutes. Product formation could be monitored by increase of relative fluorescence. This signal was converted into product concentration via calibration lines. […] The reaction mixture was analyzed with HPLC, to control if the entire peptide substrate was turned to product. Additionally the mixture was diluted (0.1–25 μM) and measured with Hitachi F-4500 fluorescence spectrophotometer at the same conditions as described above.
The microtiter plate fluorescence measurements were performed on a Tecan Infinite M200 microplate reader (Maennedorf, Switzerland) at λEx = 320 nm and λEm = 408 nm (lag time 9 μs, integration time […], gain 160, 170 or 182). The reactions (total volume 100 μl) were measured in black low-binding 96-well microtiter plates (NUNC). […] The reaction mixture for the calibration lines was prepared as described for the single fluorescence measurements. […]

## Sirt6 (Homo sapiens)
[1]
  Km: 6 µM and 5.7 ± 1.3 µM
  kcat: 4.7∙10^-3 ± 0.3∙10^-3 s^-1
  kcat/Km: 8.25∙10^2 M^-1s^-1
[2]
  Km: 18.3 ± 4.4 µM
  kcat: 8.3∙10^-4 ± 0.7∙10^-4 s^-1
  kcat/Km: 45.00 M⁻¹ s⁻¹
[3]
  Km: 17 µM and 17.3 ± 2.6 µM
  kcat: 4.9∙10^-3 ± 0.2∙10^-3 s^-1
  kcat/Km: 2.81∙10^2 M^-1s^-1
[4]
  Km: 23.5 ± 4.9 µM
  kcat/Km: 39 M⁻¹ s⁻¹
